Results reported in the supplement of paper PMC7125110.
± gives the standard error. Variants at the floor of the assay were thinned out.

B1: glmS ribozyme (parent)
chain: AUAAAAGCGCCAGAACUACAGAAAUGUAGUUGACGAGGAGGAGGUUUAUCGAAUUUUCGGCGGAUGCCUCCAAA

What was measured:
Conditions in all cases: with glucosamine-6-phosphate
[1] = variants of: B1; test: self-cleavage kobs at 640 uM GlcN6P; higher = faster cleavage; RNA array
Method in brief: (§1)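 Barcoded ribozyme variants, transcribed in situ by E. coli RNA polymerase on sequenced MiSeq chips, were followed via a hybridised Cy3 probe at 37 °C. Glucosamine-6-phosphate ranged from 40 μM to 10 mM in HEPES/KCl/Mg(OAc)2 buffer. kobs came from decay fits to per-tile medians, and kcat and KM from weighted Michaelis–Menten fits.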

[2] = variants of: B1; test: self-cleavage kobs at 160 uM GlcN6P; higher = faster cleavage; RNA array
Method in brief: as §1

[3] = variants of: B1; test: self-cleavage kobs at 2500 uM GlcN6P; higher = faster cleavage; RNA array
Method in brief: as §1

[4] = variants of: B1; test: self-cleavage kobs at 10000 uM GlcN6P; higher = faster cleavage; RNA array
Method in brief: as §1

Variant	self-cleavage kobs at 640 uM GlcN6P [1] [s⁻¹]	self-cleavage kobs at 160 uM GlcN6P [2] [s⁻¹]	self-cleavage kobs at 2500 uM GlcN6P [3] [s⁻¹]	self-cleavage kobs at 10000 uM GlcN6P [4] [s⁻¹]
A6G G41A C50A G62U	< 1e-05			
U46A U65G	0.000975 ± 0.00016	0.000293 ± 6.7e-05	0.00122 ± 0.00021	0.00301 ± 0.00058
G43U G59U G60A		< 1e-05	< 1e-05	
A6U A39G A48G	< 1e-05		< 1e-05	
U49A U56C A64U	< 1e-05	< 1e-05	< 1e-05	
G41A C50A	< 1e-05	< 1e-05	< 1e-05	< 1e-05
G41U G63A C71U		< 1e-05		
C58U C68A C71G	4.72e-05 ± 2.2e-05	8.62e-05 ± 2.6e-05		
G44C G59A	< 1e-05	< 1e-05	< 1e-05	< 1e-05
A42C A64U	< 1e-05	< 1e-05	< 1e-05	< 1e-05
A6G A12C U56A	5.6e-05 ± 1.6e-05		0.000102 ± 2.1e-05	
U47G U49G G51A G62U	< 1e-05	< 1e-05	< 1e-05	
U54A U57A U65C		< 1e-05		
A42U G44C A52C	< 1e-05	< 1e-05		
C50A C67U U69C		5.97e-05 ± 1.8e-05	0.000119 ± 3.2e-05	
G62U G66C	< 1e-05	< 1e-05	< 1e-05	< 1e-05
A42C G63U		< 1e-05		< 1e-05
A39U A53G C71A		0.000185 ± 3.5e-05	0.00139 ± 0.00042	0.00323 ± 0.00089
A1G A12U A64C	0.000103 ± 3.6e-05		0.000485 ± 0.00019	0.000643 ± 0.00015
A6C G29U A33U	< 1e-05			
U54A U56C G66A C70U	0.000185 ± 4.1e-05	7.54e-05 ± 1.5e-05	0.000395 ± 9.4e-05	
A42C U54C A64G C68A	< 1e-05	< 1e-05	< 1e-05	< 1e-05
G51C G59U C71U		< 1e-05	< 1e-05	
